Legend:
M. incognita J2 = experiment: In planta bioassay, two soil applications: nematode infection of tomato roots; format: in vivo, M. incognita on tomato plants; details: two soil applications of enzyme (250 μM papain, 2.2 μM bromelain, 3.3 mM actinidin as printed), soil 16% organic matter, 11 days
Procedure: Oxamyl is supplied as 10% liquid Vydate. 125 μl of a solution 1000 fold dilution of 10% formulation (kindly supplied by DK from NIU) was applied to 5 g of the soil mixture with 16% organic matter, to give a partial nematicidal effect. Soil mixtures were wetted with PBS pH 7.2, 16 hrs prior nematode application of 1000 or 2000 M. incognita J2. Infected soil mixtures were treated with water (control) or 250 μM of active papain in 16 mM of L-cysteine or a combination of Vydate and 250 μM of active papain in 16 mM of L-cysteine. After 48 hs tomato seedlings one month old were added to the treated soils. After 11 days the roots were washed free of soil and chopped to approximately 2 mm pieces. The root pieces of each tomato plant was placed in muslin bags and stained with acid-fuchsin. The stained roots were examined under microscope and all the nematodes present in the roots were counted. […] After 48 hours tomato seedlings one month old were added to the treated soils and after 11 days post infection nematode development inside root tissues was assessed as described above.
The avermectins are macrocyclic lactones produced by the actinomycete Streptomyces avermitilis. […] After 48 hs tomato seedlings one month old were added to the treated soils and after 11 days post infection nematode development inside root tissues was assessed as described above. […]

Meloidogyne spp. J2s = experiment: Light microscopy and SEM of cuticle damage of Meloidogyne spp. J2s; format: cell-based, M. incognita or M. javanica
Procedure: Approximately 1000 J2s (second juvenile stage) of M. incognita or M. javanica were incubated per well of a 48-well plate with the following active enzyme concentrations (determined by E-64 titration) of papain dissolved in distilled water containing 16 mM L-cysteine (to activate the cysteine proteinase): 1.5 μM, 3 μM, 6.25 μM, 12.5 μM, 25 μM, 50 μM, 75 μM and 100 μM. Control wells contained J2s and distilled water with and without 16 mM L-cysteine, or J2s and 1 mM E-64, with and without 50 μM (active enzyme) papain, which had been preincubated for 25 mins at 40° C. Each enzyme concentration and the controls were set up in duplicate (n=2) or triplicate (n=3). The number of active J2s per well was counted prior to the addition of papain, and then the J2s were incubated in the dark at room temperature for 3 h. The number of mobile J2s per well was counted after 60, 120 and 180 mins. The nematode surfaces were examined for signs of damage using a light microscope (Zeiss Axioskop) at ×20, ×40 and ×100 magnification and photographs were taken with a Xillix Microimager. The same procedure was followed when setting up further experiments to compare the effects of 25 μM papain, 25 μM crude papaya latex (0.625 g/ml), 25 μM stem bromelain (0.18 g/ml) and 25 μM actinidin (active enzyme concentrations) with M. incognita, M. javanica or G. rostochiensis.
The effects on the J2 cuticle were more closely examined by scanning electron microscopy (SEM). Approximately 2000 J2s were used per enzyme or control treatment. These J2s were added to each of four 5 ml tubes and centrifuged at 2500 rpm 4° C. for 5 mins. The supernatant was removed and the J2s were resuspended with 500 μl of 100 μM papain, 100 μM actinidin (active enzyme concentrations) or distilled water with and without 16 mM L-cysteine (the enzyme dilutions were prepared with 16 mM L-cysteine dissolved in distilled water). The nematodes were incubated in the dark at ambient temperature for 4 h before centrifugation as above. The J2s were immediately fixed with 2.5% glutaraldehyde in 0.15M phosphate buffer, pH 7.2 for 1 h at room temperature and were then centrifuged as before prior to washing for 1 h in 0.15M phosphate buffer, pH 7.2 at 4° C. These J2s were then prepared for SEM as described previously by Stepek et al. (2005).

Meloidogyne spp. eggs = experiment: Effect on eggs, hatching and development of Meloidogyne spp.; format: cell-based
Procedure: To determine if the enzymes affected the eggshell and/or the development and hatching of the juveniles which the eggs contain, approximately 300 Meloidogyne spp. eggs were incubated per well of a 48-well plate, in duplicate, in 50 μM (active enzyme) papain, prepared in 16 mM L-cysteine dissolved in distilled water, or distilled water with and without 16 mM L-cysteine. The number of eggs in each well was counted before the addition of papain and then the eggs were incubated in the dark at room temperature for 4 h. The number of eggs was counted before further incubation overnight. Finally, closer examination of the structure of the nematode eggs was performed using the light microscope at ×40 magnification.

B1: papain (protein, UniProt P00784 134-345, looked up)
Papain: IPEYVDWRQKGAVTPVKNQGSCGSCWAFSAVVTIEGIIKIRTGNLNEYSEQELLDCDRRSYGCNGGYPWSALQLVAQYGIHYRNTYPYEGVQRYCRSREKGPYAAKTDGVRQVQPYNEGALLYSIANQPVSVVLEAAGKDFQLYRGGIFVGPCGNKVDHAVAAVGYGPNYILIKNSWGTGWGENGYIRIKRGTGNSYGVCGLYTSSFYPVKN
notes: cysteine proteinase from Carica papaya, Merops C01.001, Sigma P3125
- reduction of nematode infection of plants (M. incognita J2): 89%
- visible effects on the surface of the nematodes (Meloidogyne spp. J2s; papain 1.5 μM and 3 μM, light microscopy): no visible effects on the surface
- digestion of the cuticle at the anterior end (light micrographs) (Meloidogyne spp. J2s; papain 6.25 μM and 100 μM active enzyme, 3 h): Digestion of the cuticle was evident
- appearance of the internal structures (light micrographs) (Meloidogyne spp. J2s; papain 100 μM, 3 h): abnormal granular appearance of the internal structures
- active enzyme concentration causing blistering of the cuticle (Meloidogyne spp. J2s; papain, light microscopy x40 and x100, anterior end): above 6.25 μM
- hatching and development of the J2 stage (Meloidogyne spp. eggs; incubation of the eggs with enzyme): not affected
- effect on eggs / structure of the eggs (Meloidogyne spp. eggs; light microscopy, up to overnight incubation): remained unaffected

— patent publication US20110239327A1, “Nematicidal Effects of Cysteine Proteinases and Methods of Use Thereof to Treat Nematode Infestation” (priority 2007, published 2011)
